Data on six variants can be found in FireProtDB (doi:10.1021/bi00458a027).

The labels stand for the following.
B1: Tryptophan synthase alpha chain, P0A877 (parent)
chain: MERYESLFAQLKERKEGAFVPFVTLGDPGIEQSLKIIDTLIEAGADALELGIPFSDPLADGPTIQNATLRAFAAGVTPAQCFEMLALIRQKHPTIPIGLLMYANLVFNKGIDEFYAQCEKVGVDSVLVADVPVEESAPFRQAALRHNVAPIFICPPNADDDLLRQIASYGRGYTYLLSRAGVTGAENRAALPLNHLVAKLKEYNAAPPLQGFGISAPDQVKAAIDAGAAGAISGSAIVKIIEQHINEPEKMLAALKVFVQPMKAATRS

Several values for one entry are separate records, joined by “and”; a condition that tells them apart may be missing. Equal values may be shown once.

Variants of B1 are the subject of this series. The note with it: Escherichia coli (strain K12), pH 7.8, Urea, CD, Potassium phosphate 10 mM, structure 1WQ5, whole UniProt chain shown.

For G211S, where the note is “25 °C”, the “ddG of mutation (higher = less stable)” value is -0.2 kcal/mol; the denaturant m value is 2.4 kcal/mol/M and 1.3 kcal/mol/M; the “denaturant midpoint (higher = more stable)” value (“denaturant midpoint” for short) is 2.46 M and 3.97 M; the unfolding free energy is 5.9 kcal/mol and 5.2 kcal/mol.

On to G211E, for which, under “25 °C”, the denaturant m value was 3 kcal/mol/M and 1.5 kcal/mol/M; the “denaturant midpoint” value was 2.73 M and 3.72 M; the unfolding free energy is 8.1 kcal/mol and 5.5 kcal/mol.

With G211R, where the note is “4 °C”, the denaturant m value was 1.6 kcal/mol/M and 2.2 kcal/mol/M; the “denaturant midpoint” value is 1.4 M and 3.28 M.

For the variant G211W, for the setting “25 °C”, the “ddG of mutation (higher = less stable)” value was 1.6 kcal/mol and 1.1 kcal/mol; the denaturant m value is 1.8 kcal/mol/M and 1.1 kcal/mol/M; the “denaturant midpoint” value was 2.25 M and 3.62 M; the unfolding free energy was 4.1 kcal/mol and 3.9 kcal/mol.

Take G211V: under “25 °C”, the denaturant m value was 1.9 kcal/mol/M and 1.6 kcal/mol/M; the “denaturant midpoint” value is 2.78 M and 4.3 M; the unfolding free energy was 5.4 kcal/mol and 6.9 kcal/mol.

As for G211D, where the note is “25 °C”, the “ddG of mutation (higher = less stable)” value was 0.3 kcal/mol and 0.8 kcal/mol; the denaturant m value is 2 kcal/mol/M and 1.2 kcal/mol/M; the “denaturant midpoint” value is 2.7 M and 3.61 M; the unfolding free energy is 5.4 kcal/mol and 4.2 kcal/mol.
